From article PMC13147308 (2025)

What was measured:
Experiment in all cases: ITC; Tris buffer
[1] = target: T1, Staphylococcus aureus Cas9, full length, His-tagged (Staphylococcus aureus, UniProt J7RUA5 1-1053)
T1 chain: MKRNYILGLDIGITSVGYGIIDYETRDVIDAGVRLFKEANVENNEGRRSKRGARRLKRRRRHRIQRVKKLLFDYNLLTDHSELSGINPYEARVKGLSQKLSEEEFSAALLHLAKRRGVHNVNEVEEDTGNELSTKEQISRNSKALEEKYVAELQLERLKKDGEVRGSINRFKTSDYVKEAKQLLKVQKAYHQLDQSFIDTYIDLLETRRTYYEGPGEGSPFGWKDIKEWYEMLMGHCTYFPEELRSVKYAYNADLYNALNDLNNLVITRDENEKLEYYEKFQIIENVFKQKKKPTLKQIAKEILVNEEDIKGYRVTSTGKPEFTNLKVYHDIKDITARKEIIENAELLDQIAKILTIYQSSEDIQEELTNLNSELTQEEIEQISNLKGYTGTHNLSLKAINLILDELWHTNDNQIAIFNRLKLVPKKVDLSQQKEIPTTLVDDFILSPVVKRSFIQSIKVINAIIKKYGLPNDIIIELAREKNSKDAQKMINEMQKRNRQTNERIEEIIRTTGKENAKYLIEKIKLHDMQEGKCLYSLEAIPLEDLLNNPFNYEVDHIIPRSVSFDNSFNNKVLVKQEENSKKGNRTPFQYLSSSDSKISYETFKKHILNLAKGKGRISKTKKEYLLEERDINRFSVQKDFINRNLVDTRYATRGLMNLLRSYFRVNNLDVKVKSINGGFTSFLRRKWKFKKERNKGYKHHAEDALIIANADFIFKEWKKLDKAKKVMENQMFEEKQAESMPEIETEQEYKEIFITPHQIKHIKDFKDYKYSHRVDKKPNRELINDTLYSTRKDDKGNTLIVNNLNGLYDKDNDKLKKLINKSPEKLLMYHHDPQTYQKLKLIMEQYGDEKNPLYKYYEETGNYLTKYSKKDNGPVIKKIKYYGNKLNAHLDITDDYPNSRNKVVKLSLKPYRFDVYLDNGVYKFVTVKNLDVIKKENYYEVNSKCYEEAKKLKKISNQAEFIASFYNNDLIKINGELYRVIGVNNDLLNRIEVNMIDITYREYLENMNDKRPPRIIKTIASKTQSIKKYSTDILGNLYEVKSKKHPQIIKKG

[2] = target: T2, SauCas9 PI (PAM-interacting) domain, His-tagged (Staphylococcus aureus)
T2 chain: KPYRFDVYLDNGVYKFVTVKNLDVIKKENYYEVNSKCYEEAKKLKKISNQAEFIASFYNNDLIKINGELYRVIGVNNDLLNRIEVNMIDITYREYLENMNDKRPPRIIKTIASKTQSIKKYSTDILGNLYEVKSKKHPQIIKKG

[3] = target: T3, SauCas9 WED-PI domain construct, His-tagged (Staphylococcus aureus)
T3 chain: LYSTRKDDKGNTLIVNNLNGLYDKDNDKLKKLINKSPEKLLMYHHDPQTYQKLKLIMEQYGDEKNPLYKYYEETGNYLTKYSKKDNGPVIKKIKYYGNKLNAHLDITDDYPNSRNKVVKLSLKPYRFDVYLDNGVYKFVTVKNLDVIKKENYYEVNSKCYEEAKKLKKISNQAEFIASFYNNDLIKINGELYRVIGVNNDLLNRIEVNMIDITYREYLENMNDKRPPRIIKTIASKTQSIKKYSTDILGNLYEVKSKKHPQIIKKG

[4] = target: T4, SauCas9 WED (wedge-like) domain, His-tagged (Staphylococcus aureus)
T4 chain: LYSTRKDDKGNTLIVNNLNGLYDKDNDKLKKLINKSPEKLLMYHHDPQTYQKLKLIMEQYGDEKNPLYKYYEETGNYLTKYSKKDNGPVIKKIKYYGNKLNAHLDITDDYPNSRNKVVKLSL

B1: Staphylococcus haemolyticus AcrIIA13b, wild type, with C-terminal 6xHis tag (natural protein)
chain: MNELNNKMIEDVVLGEVELIEDLGQYFIDIEGDYEYNVEFATLSEVDYKVCALYEVATSKTYEVPYHDKLEKEDMKLFYDKWLEKDQQEETYIESVFFVNREDAESYIKDVLKGKESLTEVAAEIGYFELEHHHHHH
B1 showed a Kd [1] of 6.15 µM, a Kd [2] of 3.83 µM and a Kd [3] of 1.61 µM. For the same binder, the Kd [4] was 8.17 µM.
